Where a chain is given by its changes, count along the chain named. Where two headings read alike, the source gives them in different places.
B1: Ab 037 (antibody, V domains shown)
VH: EVQLLESGGGLVKPGQSLKLSCAASGFTFTSYAMHWVRQPPGKGLEWVAVVSYDGNYKYYADSVQGRFTISRDNSKNTLYLQMNSLRAEDTAVYYCAKDSRLRSLLYFEWLSQGYFNPWGQGTTLTVSS
VL: DIQMTQSPSSLSASVGDRVTITCRSSQSITFNYKNYLGWYQQKPGKAPKLLIYWGSYLESGVPSRFSGSGSGTDFTLTISSLQPEDFATYYCQQHYRTPPSFGQGTKVEIK
B2: Ab 004 (antibody, V domains shown)
VH: B1 VH with E1Q, S7T
VL: DIVMTQSPDTLAVTLGERATIQCKSSQTVTFNYKNYLAWYQQKPGQPPKLLIYWASTRESGVPDRFSGSGSGTDFTLTITSLQAEDVAVYYCQQHYRTPPSFGQGTKLDIK
B3: Ab 031 (antibody, V domains shown)
VH: B1 VH
VL: B1 VL with G38A
B4: Ab 005 (antibody, V domains shown)
VH: B1 VH with E1Q, S7T
VL: B2 VL with L11V, L15V, Q22N, T80S
B5: Ab 044 (antibody, V domains shown)
VH: B1 VH with E1Q, S7T
VL: B1 VL with N32D, G38A
B6: Ab 032 (antibody, V domains shown)
VH: B1 VH with E1Q, S7T
VL: B1 VL with G38A
B7: Ab 038 (antibody, V domains shown)
VH: B1 VH with E1Q, S7T
VL: B1 VL

Legend:
[1] = molecular target: H1 hemagglutinin (A/Puerto Rico/8/34) (influenza A virus A/Puerto Rico/8/34 (H1N1)) (UniProt P03452); test: cell-based or functional assay
[2] = molecular target: H3 hemagglutinin of H3N2 strain X-31 (influenza A virus X-31 (H3N2)) (UniProt P03437); test: cell-based or functional assay
[3] = molecular target: H7 hemagglutinin (A/Netherlands/219/2003) (influenza A virus A/Netherlands/219/2003 (H7N7)); test: ELISA on coated HA, relative Kd (4-parameter fit)
[4] = molecular target: H5 hemagglutinin (A/Vietnam/1203/2004) (influenza A virus A/Vietnam/1203/2004 (H5N1)); test: ELISA on coated HA, relative Kd (4-parameter fit)
[5] = molecular target: H3 hemagglutinin (A/Wyoming/03/2003) (influenza A virus A/Wyoming/03/2003 (H3N2)); test: ELISA on coated HA, relative Kd (4-parameter fit)
[6] = molecular target: H3 hemagglutinin (A/Wisconsin/67/2005) (influenza A virus A/Wisconsin/67/2005 (H3N2)); test: ELISA on coated HA, relative Kd (4-parameter fit)
[7] = molecular target: H1 hemagglutinin (A/Solomon Islands/3/2006) (influenza A virus A/Solomon Islands/3/2006); test: ELISA on coated HA, relative Kd (4-parameter fit)
[8] = molecular target: H3 hemagglutinin (A/New York/55/2004) (influenza A virus A/New York/55/2004 (H3N2)); test: ELISA on coated HA, relative Kd (4-parameter fit)
[9] = molecular target: H9 hemagglutinin (A/Hong Kong/1073/99) (influenza A virus A/Hong Kong/1073/99 (H9)); test: ELISA on coated HA, relative Kd (4-parameter fit)
[10] = molecular target: H3 hemagglutinin (A/Brisbane/10/2007) (influenza A virus A/Brisbane/10/2007 (H3N2)); test: ELISA on coated HA, relative Kd (4-parameter fit)
[11] = molecular target: H16 hemagglutinin (A/black headed gull/Mongolia/1756/2006) (influenza A virus A/black headed gull/Mongolia/1756/2006 (H16)); test: ELISA on coated HA
[12] = molecular target: H7 hemagglutinin (A/Netherlands/219/2003) (influenza A virus A/Netherlands/219/2003 (H7N7)); test: ELISA on coated HA
[13] = molecular target: H5 hemagglutinin (A/Vietnam/1203/2004) (influenza A virus A/Vietnam/1203/2004 (H5N1)); test: ELISA on coated HA
[14] = molecular target: H3 hemagglutinin (A/Wyoming/03/2003) (influenza A virus A/Wyoming/03/2003 (H3N2)); test: ELISA on coated HA
[15] = molecular target: H3 hemagglutinin (A/Wisconsin/67/2005) (influenza A virus A/Wisconsin/67/2005 (H3N2)); test: ELISA on coated HA
[16] = molecular target: H3 hemagglutinin (A/Perth/16/2006) (influenza A virus A/Perth/16/2006 (H3)); test: ELISA on coated HA
[17] = molecular target: H9 hemagglutinin (A/Guinea fowl/HK/WF10/99) (influenza A virus A/Guinea fowl/HK/WF10/99 (H9)); test: ELISA on coated HA
[18] = molecular target: HA from influenza B (B/Wisconsin/1/2010) (influenza B virus B/Wisconsin/1/2010); test: ELISA on coated HA
[19] = molecular target: H3 hemagglutinin (A/Uruguay/716/2007) (influenza A virus A/Uruguay/716/2007 (H3)); test: ELISA on coated HA
[20] = molecular target: H3 hemagglutinin (A/New York/55/2004) (influenza A virus A/New York/55/2004 (H3N2)); test: ELISA on coated HA
[21] = molecular target: H3 hemagglutinin (A/Moscow/10/1999) (influenza A virus A/Moscow/10/1999 (H3)); test: ELISA on coated HA
[22] = molecular target: H2 hemagglutinin (A/chicken/PA/2004) (influenza A virus A/chicken/PA/2004 (H2)); test: ELISA on coated HA
[23] = molecular target: H9 hemagglutinin (A/Hong Kong/1073/99) (influenza A virus A/Hong Kong/1073/99 (H9)); test: ELISA on coated HA
[24] = molecular target: H3 hemagglutinin (A/Brisbane/10/2007) (influenza A virus A/Brisbane/10/2007 (H3N2)); test: ELISA on coated HA
[25] = molecular target: H3 hemagglutinin (A/Wyoming/03/2003) (influenza A virus A/Wyoming/03/2003 (H3N2)); test: cell-based or functional assay
[26] = molecular target: H3 hemagglutinin (A/Brisbane/10/2007) (influenza A virus A/Brisbane/10/2007 (H3N2)); test: cell-based or functional assay
[27] = molecular target: H5 hemagglutinin (A/Vietnam/1203/2004) (influenza A virus A/Vietnam/1203/2004 (H5N1))
[28] = molecular target: H7 hemagglutinin (A/Netherlands/219/2003) (influenza A virus A/Netherlands/219/2003 (H7N7))
[29] = molecular target: H5 hemagglutinin (A/Vietnam/1203/2004) (influenza A virus A/Vietnam/1203/2004 (H5N1)); remark: listed apart in the source
[30] = molecular target: H3 hemagglutinin (A/Brisbane/10/2007) (influenza A virus A/Brisbane/10/2007 (H3N2))

Binder	MIC [1] [µg/mL]	MIC [2] [µg/mL]	Kd [3] [nM]	Kd [4] [nM]	Kd [5] [nM]	Kd [6] [nM]	Kd [7] [nM]	Kd [8] [nM]	Kd [9] [nM]	Kd [10] [nM]	other results
B1	4	8	0.114	0.059	0.512	0.313	0.075	0.14	0.075	0.087	
B2	12	6	0.073	0.06	0.272	0.713	< 0.08	0.066	0.06	< 0.08	
B3	1	20	0.091	< 0.025	0.331	0.253	< 0.025	0.059	< 0.025	0.068	
B4	10	10	0.064	0.038	0.311	1.09	< 0.08	0.065	0.035	0.052	
B5											Kd [11]: < 0.5 nM; Kd [12]: < 0.5 nM; Kd [13]: < 0.5 nM; Kd [14]: < 0.5 nM; Kd [15]: < 0.5 nM; Kd [16]: < 0.5 nM; Kd [17]: < 0.5 nM; Kd [18]: < 0.5 nM; Kd [19]: < 0.5 nM; Kd [20]: < 0.5 nM; Kd [21]: < 0.5 nM; Kd [22]: < 0.5 nM; Kd [23]: < 0.5 nM; Kd [24]: < 0.5 nM; EC50, Neutral Red (CPE inhibition) [25]: 6.8 µg/mL; EC50, Neutral Red (CPE inhibition) [26]: 0.3 µg/mL
B6			0.106	< 0.025	0.262	0.208		0.094	0.079	< 0.025	koff [27]: < 5e-06 s⁻¹; Kd [28]: 0.145 nM; koff [28]: 0.000161 s⁻¹; kon [28]: 1.13e+06 M⁻¹ s⁻¹; kon [29]: 988000 M⁻¹ s⁻¹; Kd [30]: 0.234 nM; koff [30]: 0.000376 s⁻¹; kon [30]: 1.61e+06 M⁻¹ s⁻¹
B7	2	4	0.119	0.087	0.515	0.199	0.064	0.102	< 0.025	< 0.025	

— US20220204592A1
